Reference: article PMC12449476, “Transient ligand contacts of the intrinsically disordered N-terminus of neuropeptide Y2 receptor regulate arrestin-3 recruitment” (Nature Communications, 2025)
Numbering of substitutions follows the chain as printed.

Columns and labels:
[1] = molecular target: T1, Nluc-Y2R-eYFP D42A-S43A-T44A (Homo sapiens, UniProt P49146, D42A/S43A/T44A); assay: NanoBRET equilibrium ligand binding
T1 construct: expressed in transfected cells; host or cells: membrane preparations of transiently transfected HEK293
T1 sequence (P49146 1-381 D42A/S43A/T44A): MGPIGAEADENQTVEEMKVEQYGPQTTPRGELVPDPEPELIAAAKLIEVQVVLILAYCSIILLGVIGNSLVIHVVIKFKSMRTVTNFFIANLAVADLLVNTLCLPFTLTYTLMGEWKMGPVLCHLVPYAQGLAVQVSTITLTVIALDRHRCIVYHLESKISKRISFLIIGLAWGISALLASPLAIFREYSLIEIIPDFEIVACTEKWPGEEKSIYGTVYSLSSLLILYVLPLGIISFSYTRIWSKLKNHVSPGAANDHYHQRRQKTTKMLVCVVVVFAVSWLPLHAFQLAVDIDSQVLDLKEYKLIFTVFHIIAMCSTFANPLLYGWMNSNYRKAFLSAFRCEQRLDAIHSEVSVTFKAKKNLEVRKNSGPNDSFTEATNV
Protocol: (§1) Briefly, for each data point, membranes containing 0.03 μg total protein were suspended in ice-cold BRET binding buffer (Hank’s balanced salt solution (HBSS) containing 20 mM HEPES (pH 7.4), 0.1% bovine serum albumin (BSA)). The assay was performed in solid black 96-WP with a total assay volume of 100 μL in technical duplicate or triplicate. […] To determine unspecific binding, 100 µM of the Y2R antagonist JNJ-31020028 (Selleck Europe) were added to each well. […] To start the dissociation measurement, the antagonist JNJ-31020028 was added to a final concentration of 50 µM (20 µL) using the built-in injector system of the plate reader and the BRET decay was measured for 20 min. Raw BRET was calculated as the ratio of fluorescence to luminescence, and the background value of the unspecific binding controls was subtracted to obtain the netBRET signal.

[2] = molecular target: T2, Nluc-Y2R-eYFP D/E35-39K (Homo sapiens, UniProt P49146, D35K/E37K/E39K); assay: NanoBRET equilibrium ligand binding
T2 construct: expressed in transfected cells; host or cells: HEK293, transiently transfected, membrane preparations
T2 sequence (P49146 1-381 D35K/E37K/E39K): T1 sequence (P49146 1-381 D42A/S43A/T44A) with D35K, E37K, E39K, A42D, A43S, A44T
Protocol: as §1

[3] = molecular target: T3, Nluc-Y2R-eYFP E15-20K (Homo sapiens, UniProt P49146, E15K/E16K/E20K); assay: NanoBRET equilibrium ligand binding
T3 construct: expressed in transfected cells; host or cells: membrane preparations of transiently transfected HEK293
T3 sequence (P49146 1-381 E15K/E16K/E20K): T1 sequence (P49146 1-381 D42A/S43A/T44A) with E15K, E16K, E20K, A42D, A43S, A44T
Protocol: as §1

[4] = molecular target: T2, Nluc-Y2R-eYFP D/E35-39K; assay: NanoBRET ligand dissociation; assay type: binding; conditions: koff, charge reversal in the acidic patches
Protocol: as §1

[5] = molecular target: T4, Nluc-Y2R-eYFP Δ2-41 (Homo sapiens, UniProt P49146); assay: NanoBRET ligand dissociation; assay type: binding; conditions: koff
T4 construct: expressed in transfected cells; host or cells: membrane preparations of transiently transfected HEK293
T4 sequence (P49146 with tags, fused parts or gaps): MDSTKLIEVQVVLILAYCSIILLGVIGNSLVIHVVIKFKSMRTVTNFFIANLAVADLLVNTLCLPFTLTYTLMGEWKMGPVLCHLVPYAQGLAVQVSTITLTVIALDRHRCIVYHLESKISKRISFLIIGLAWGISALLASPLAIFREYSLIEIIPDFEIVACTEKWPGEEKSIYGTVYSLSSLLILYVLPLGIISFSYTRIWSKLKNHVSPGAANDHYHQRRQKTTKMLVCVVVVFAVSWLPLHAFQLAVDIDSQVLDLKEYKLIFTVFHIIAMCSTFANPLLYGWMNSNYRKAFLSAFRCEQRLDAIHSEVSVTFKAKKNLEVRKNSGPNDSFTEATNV
Protocol: as §1

[6] = molecular target: T3, Nluc-Y2R-eYFP E15-20K; assay: NanoBRET ligand dissociation; assay type: binding; conditions: koff, charge reversal in the acidic patches
Protocol: as §1

In the case of “K18-Tamra-NPY: tetramethylrhodamine(Tamra)-labeled peptide (K^18-Tamra-NPY)”, the BRETmax ([1]; HEK293 membranes, 10 min RT, mean, 95% CI 0.0040 to 0.0080) is reported as 0.0060, the “Low-affinity state affinity reduction vs wild-type” value ([1]; NanoBRET, HEK293 membranes) is reported as “about three-fold reduced” and the Fraction high affinity ([1]; mean, 95% CI 0.0649 to 0.2365, P<0.01 vs WT) is reported as 0.1507. The “KD, high replicates (log)” value ([1]; replicate 1) was -9.81, the “KD, low replicates (log)” value ([1]; replicate 1) was -6.11 and the “KD, high replicates (log)” value ([1]; replicate 2) was -11.68. The “KD, low replicates (log)” value ([1]; replicate 2) was -6.26, the “KD, high replicates (log)” value ([1]; replicate 3) was -9.11 and the “KD, low replicates (log)” value ([1]; replicate 3) was -5.98. The BRETmax ([2]; HEK293 membranes, 10 min RT, mean, 95% CI 0.025 to 0.0287) was 0.0270, the Fraction high affinity ([2]; mean, 95% CI 0 to 0.1938) was 0.0957 and the “KD, high replicates (log)” value ([2]; replicate 1) was -9.38. For the same substance, the “KD, low replicates (log)” value ([2]; replicate 1) was -6.53, the “KD, high replicates (log)” value ([2]; replicate 2) was -9.46 and the “KD, low replicates (log)” value ([2]; replicate 2) was -6.67. The “KD, high replicates (log)” value ([2]; replicate 3) was -10.11, the “KD, low replicates (log)” value ([2]; replicate 3) was -6.65 and the BRETmax ([3]; HEK293 membranes, 10 min RT, mean, 95% CI 0.0243 to 0.0371) was 0.0307. For the same substance, the Fraction high affinity ([3]; mean, 95% CI 0.0705 to 0.0862) was 0.0783, the “KD, high replicates (log)” value ([3]; replicate 1) was -9.24 and the “KD, low replicates (log)” value ([3]; replicate 1) was -6.58. For the same substance, the “KD, high replicates (log)” value ([3]; replicate 2) was -9.21, the “KD, low replicates (log)” value ([3]; replicate 2) was -6.52 and the “KD, high replicates (log)” value ([3]; replicate 3) was -9.93. The “KD, low replicates (log)” value ([3]; replicate 3) was -6.58, the “Increase of ligand dissociation vs wild-type” value (shortened to “Increase”) [4] was “two to three-fold” and the “Increase” value [5] was “two to three-fold”. The “Increase” value [6] was “two to three-fold”.
